Each block holds one molecule with its values, some of them ahead of it.
Key:
[1] = target: T1, LFA-1 (heterodimeric CD11a/CD18) (human, UniProt P20701 26-1170; P05107 23-769); experiment: competition on Jurkat cells at 4 C; HI111 at 1 microg/mL against 35S-labelled 3D-ICAM-1/Fc
T1 construct: whole, on cells; Endogenous LFA-1 on Jurkat cells (and on human PBMC) in the cell assays; In the BIAcore assay and the co-immunoprecipitations it was the whole heterodimer from octylthioglucoside lysates of Jurkat cells; also called LFA-1 molecule; LFA-1 counter receptor
T1 sequence (P20701 26-1170, chain 1 of 2): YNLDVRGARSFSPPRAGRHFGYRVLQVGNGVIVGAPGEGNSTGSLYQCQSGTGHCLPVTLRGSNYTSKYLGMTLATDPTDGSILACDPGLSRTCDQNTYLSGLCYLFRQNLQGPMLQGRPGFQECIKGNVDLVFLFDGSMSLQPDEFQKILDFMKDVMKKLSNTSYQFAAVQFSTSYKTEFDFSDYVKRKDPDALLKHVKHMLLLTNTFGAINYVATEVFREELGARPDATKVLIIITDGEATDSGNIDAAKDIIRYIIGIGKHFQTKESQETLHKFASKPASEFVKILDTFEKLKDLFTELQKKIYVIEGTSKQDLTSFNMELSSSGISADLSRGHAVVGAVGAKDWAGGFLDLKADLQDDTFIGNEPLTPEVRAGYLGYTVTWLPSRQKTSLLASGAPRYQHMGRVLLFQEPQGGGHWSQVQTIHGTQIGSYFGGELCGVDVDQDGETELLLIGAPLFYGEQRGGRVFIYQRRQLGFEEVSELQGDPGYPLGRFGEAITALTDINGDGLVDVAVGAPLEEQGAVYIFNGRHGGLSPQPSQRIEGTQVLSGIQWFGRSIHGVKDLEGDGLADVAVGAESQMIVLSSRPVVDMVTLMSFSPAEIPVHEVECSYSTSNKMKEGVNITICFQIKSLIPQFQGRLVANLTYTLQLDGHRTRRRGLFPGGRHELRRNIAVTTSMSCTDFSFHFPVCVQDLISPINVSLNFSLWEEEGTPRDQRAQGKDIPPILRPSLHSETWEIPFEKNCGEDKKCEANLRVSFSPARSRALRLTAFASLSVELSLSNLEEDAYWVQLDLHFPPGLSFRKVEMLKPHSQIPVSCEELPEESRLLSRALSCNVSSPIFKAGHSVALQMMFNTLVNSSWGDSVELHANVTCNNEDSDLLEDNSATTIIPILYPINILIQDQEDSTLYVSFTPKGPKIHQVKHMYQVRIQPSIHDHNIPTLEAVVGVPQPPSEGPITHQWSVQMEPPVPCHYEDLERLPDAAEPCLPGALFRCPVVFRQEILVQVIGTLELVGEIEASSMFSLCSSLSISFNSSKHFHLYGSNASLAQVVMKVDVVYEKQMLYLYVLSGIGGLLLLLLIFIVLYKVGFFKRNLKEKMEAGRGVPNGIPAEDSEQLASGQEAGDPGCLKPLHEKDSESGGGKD
T1 sequence (P05107 23-769, chain 2 of 2): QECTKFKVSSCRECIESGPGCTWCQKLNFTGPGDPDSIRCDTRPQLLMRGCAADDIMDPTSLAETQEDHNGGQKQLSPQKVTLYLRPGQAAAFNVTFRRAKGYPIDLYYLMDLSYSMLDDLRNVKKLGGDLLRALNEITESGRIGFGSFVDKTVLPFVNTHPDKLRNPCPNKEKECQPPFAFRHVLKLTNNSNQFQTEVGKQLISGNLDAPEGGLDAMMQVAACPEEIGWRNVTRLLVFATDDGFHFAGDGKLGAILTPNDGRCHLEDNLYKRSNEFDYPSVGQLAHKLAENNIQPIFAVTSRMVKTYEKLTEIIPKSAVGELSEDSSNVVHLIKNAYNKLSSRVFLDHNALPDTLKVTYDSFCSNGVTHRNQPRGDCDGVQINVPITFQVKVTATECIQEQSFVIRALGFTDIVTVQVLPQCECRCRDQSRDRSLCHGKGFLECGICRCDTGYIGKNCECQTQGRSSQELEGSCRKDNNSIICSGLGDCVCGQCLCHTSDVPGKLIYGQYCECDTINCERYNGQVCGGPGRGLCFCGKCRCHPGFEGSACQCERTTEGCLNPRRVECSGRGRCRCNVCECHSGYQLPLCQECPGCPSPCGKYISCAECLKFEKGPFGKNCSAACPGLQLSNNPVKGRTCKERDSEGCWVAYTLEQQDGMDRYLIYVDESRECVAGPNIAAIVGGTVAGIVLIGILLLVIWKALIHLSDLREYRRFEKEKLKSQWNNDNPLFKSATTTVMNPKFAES

[2] = target: T1, LFA-1 (heterodimeric CD11a/CD18); experiment: BIAcore, from the ratio of the rate constants; ESM-1 over LFA-1 captured by immobilized HI111
Procedure: The affinity constant was calculated from the equation Kd=kd/ka.
To better define the interaction between LFA-1 and ESM-1, a real-time observation by BIAcore analysis was carried out. Sensor chip was filled with detergent lysates of Jurkat cells in order to capture functional LFA-1 molecules. Specific binding of the heterodimeric form of LFA-1 to the anti-CD11a mAb coupled censorship was observed. In this assay, anti-CD11a mAb (HI111) was immobilized on the surface of the carboxymethyl 5 sensor chip as described in Materials and Methods. The binding of heterodimeric LFA-1 to mAb coated chip was consistently detected. The presence of both CD11a chain and CD18 chain was checked by injecting either another anti-CD11a mAb (G43-25B), or an anti-CD18 mAb in the LFA-1 captured channel. As reported in FIG. 18A, LFA-1 was strongly captured under its heterodimeric form, which was essential to keep functionality of LFA-1. Next, we have also examined the interaction of LFA-1 and purified human ESM-1 by BIAcore biosensor. […] No interaction was detected between the mAb coated surface or control surface and ESM-1 at the highest concentration used in this experiment (data not shown). Purified ESM-1 was then injected at indicated concentrations to the LFA-1 captured surface, and the response (in resonance units) versus time (in seconds) was recorded. […]

CD2 on Jurkat cells = target: T2, CD2 on Jurkat cells (human, UniProt P06729 25-351); experiment: co-immunoprecipitation with anti-CD2 mAb from lysates of Jurkat cells incubated with 300 ng/mL ESM-1; ESM-1 ELISA of eluate
T2 construct: whole, on cells
T2 sequence (looked up): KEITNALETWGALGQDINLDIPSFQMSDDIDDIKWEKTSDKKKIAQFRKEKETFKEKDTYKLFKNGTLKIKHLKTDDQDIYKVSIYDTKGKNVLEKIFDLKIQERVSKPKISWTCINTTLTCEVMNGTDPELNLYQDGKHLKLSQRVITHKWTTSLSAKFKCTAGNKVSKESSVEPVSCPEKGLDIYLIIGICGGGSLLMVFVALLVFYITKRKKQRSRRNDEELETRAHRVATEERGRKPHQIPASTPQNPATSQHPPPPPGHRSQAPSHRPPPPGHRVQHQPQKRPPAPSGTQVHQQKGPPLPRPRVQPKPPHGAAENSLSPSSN
Procedure: (§1) FIGS. 17A–B: An anti-CD11a mAb coimmunoprecipitates ESM-1 with LFA-1 and increases ESM-1 binding to Jurkat cells. A. Coimmunoprecipitation of ESM-1 with LFA-1 : Jurkat cells were incubated with ESM-1 for 1 hour at 4° C. and immunoprecipitations were done with different mAbs according to the procedure previously described (none, anti-ESM-1 (MEC15), anti-CD3, anti-CD11a (1), ie clone HI111, anti-CD11a (2), ie clone G43-25B anti-CD18, anti-CD44, anti-CD2). Beads were washed and eluted. ESM-1 contents from eluates were analyzed by a specific ELISA. B. Activation of the binding of ESM-1 by an anti-CD11a mAb: Jurkat cells were firstly incubated in binding medium with different mAbs (none, anti-CD11a (1), anti-CD11a (2), IgG control) for 1 h at room temperature and secondly with ESM-1 for 1 h at 4° C. Cells were washed and lysed. ESM-1 was quantified by a specific ELISA in lysates (n=5).

CD44 on Jurkat cells = target: T3, CD44 on Jurkat cells (human, UniProt P16070 21-742); experiment: co-immunoprecipitation with anti-CD44 mAb from lysates of Jurkat cells incubated with 300 ng/mL ESM-1; ESM-1 ELISA of eluate
T3 construct: whole, on cells
T3 sequence (P16070 21-742): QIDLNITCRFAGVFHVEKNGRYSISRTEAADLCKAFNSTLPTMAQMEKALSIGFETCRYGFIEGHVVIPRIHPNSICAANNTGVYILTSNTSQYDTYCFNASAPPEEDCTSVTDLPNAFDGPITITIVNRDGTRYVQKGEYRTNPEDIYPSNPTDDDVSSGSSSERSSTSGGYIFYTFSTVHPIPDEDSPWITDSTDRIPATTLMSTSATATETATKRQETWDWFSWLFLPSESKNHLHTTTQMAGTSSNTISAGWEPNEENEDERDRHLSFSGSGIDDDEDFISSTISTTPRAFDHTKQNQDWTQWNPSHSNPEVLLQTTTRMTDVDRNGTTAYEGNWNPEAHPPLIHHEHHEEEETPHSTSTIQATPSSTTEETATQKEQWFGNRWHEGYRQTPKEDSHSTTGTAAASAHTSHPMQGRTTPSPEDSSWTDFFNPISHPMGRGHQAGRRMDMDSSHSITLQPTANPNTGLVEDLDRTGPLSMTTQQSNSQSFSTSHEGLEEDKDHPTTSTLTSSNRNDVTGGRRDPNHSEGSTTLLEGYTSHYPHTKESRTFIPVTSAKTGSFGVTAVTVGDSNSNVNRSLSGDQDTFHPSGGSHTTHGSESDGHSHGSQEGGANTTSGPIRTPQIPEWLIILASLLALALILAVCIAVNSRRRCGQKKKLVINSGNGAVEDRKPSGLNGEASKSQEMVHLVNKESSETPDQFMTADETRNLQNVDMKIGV
Procedure: as §1

[3] = target: T1, LFA-1 (heterodimeric CD11a/CD18); experiment: BIAcore, purified ESM-1 (5 concentrations, 50 to 300 nM) over LFA-1 from Jurkat lysate captured by immobilized HI111, 25 C, PBS with 1 mM MgCl2 and 1 mM MnCl2
Procedure: LFA-1 molecules from the Jurkat lysates could only be fixed by immuno-affinity procedure. 200 millions of Jurkat cells were lysed in 2 mL of lysis buffer (PBS, 1 mM MgCl2, 1 mM MnCl2, complete anti-proteases cocktail EDTA-free and 5 mM octylthioglucoside) for 30 min at 4° C. After removal of insoluble material by centrifugation and incubation in a sonication bath, the lysate was injected at a flow rate of 5 microL/min for 30 min at 25° C. in order to immobilize approximatively 1500 RU of LFA-1 molecules. Next, CD11a mAb (G43-25B), CD18 mAb and purified ESM-1 were diluted in running buffer (PBS, 1 mM MgCl2, 1 mM MnCl2) and injected at a flow rate of 5 microL/min for 5 min at 25° C. The association rate constant (ka) and the dissociation rate constant (kd) were fitted calculated according to the BIAevaluation software version 3.1 provided by the manufacturer. The affinity constant was calculated from the equation Kd=kd/ka.
To better define the interaction between LFA-1 and ESM-1, a real-time observation by BIAcore analysis was carried out. Sensor chip was filled with detergent lysates of Jurkat cells in order to capture functional LFA-1 molecules. […] The binding of heterodimeric LFA-1 to mAb coated chip was consistently detected. […] No interaction was detected between the mAb coated surface or control surface and ESM-1 at the highest concentration used in this experiment (data not shown).

[4] = target: T4, 3D-ICAM-1/Fc chimeric protein (three first extracellular domains of ICAM-1 fused to the Fc fragment of human … (human, UniProt P05362 28-311, limits assumed, 35S methionine metabolic label in the ICAM-1 binding assays)); experiment: coprecipitation
T4 construct: domain: three first extracellular domains of ICAM-1; Expressed in 293 cells and purified on an anti-human Fc agarose column; also called soluble ICAM-1; soluble ICAM-1/Fc; not shown: Fc fragment of human IgG1
T4 sequence (P05362 28-311 limits assumed, stated change not applied): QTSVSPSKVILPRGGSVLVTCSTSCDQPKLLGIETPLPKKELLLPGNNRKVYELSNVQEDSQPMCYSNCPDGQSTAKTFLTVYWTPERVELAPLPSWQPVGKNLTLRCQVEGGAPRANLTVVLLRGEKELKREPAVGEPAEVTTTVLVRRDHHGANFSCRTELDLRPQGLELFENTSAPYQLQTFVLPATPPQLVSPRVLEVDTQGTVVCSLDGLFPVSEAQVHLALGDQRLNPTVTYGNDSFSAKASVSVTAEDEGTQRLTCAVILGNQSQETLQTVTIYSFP

labelled ICAM-1 still bound (cpm) [1]: 837 cpm
Molecule: anti-CD11a mAb clone HI111 (antibody)

Kd [2]: 18.7 nM
binding result (CD2 on Jurkat cells): no binding
binding result (CD44 on Jurkat cells): no binding
koff [3]: 0.000825 s⁻¹
kon [3]: 44100 M⁻¹ s⁻¹
binding result [4]: no binding
B1: secreted ESM-1 protein (Endothelial Cell Specific Molecule-1), purified wild-type form (ligand)
chain: WSNNYAVDCPQHCDSSECKSSPRCKRTVLDDCGCCRVCAAGRGETCYRTVSGMDGMKCGPCLRCQPSNCEDPFGEEFGICKDCPYGTFGMDCRETCNCQSCICDRGTGKCLKFPFFQYSVTKSSNRFVSLTEHDMASGDGNIVREEVVKENAAGSPVMRKWLNPR
notes: The secreted form runs at about 50 kD and is described as glycosylated (a proteoglycan); also called ESM/WT; extracellular ESM-1
